Consider one variant from FireProtDB (doi:10.1016/s0006-3495(99)76955-9).

The labels stand for the following.
B1: Azurin, P00282 (parent)
chain: MLRKLAAVSLLSLLSAPLLAAECSVDIQGNDQMQFNTNAITVDKSCKQFTVNLSHPGNLPKNVMGHNWVLSTAADMQGVVTDGMASGLDKDYLKPDDSRVIAHTKLIGSGEKDSVTFDVSKLKEGEQYMFFCTFPGHSALMKGTLTLK

In the data set the parent is B1. Particulars: Pseudomonas aeruginosa (strain ATCC 15692 / DSM 22644 / CIP 104116 / JCM 14847 / LMG 12228 / 1C / PRS 101 / PAO1); pH 7.03; 20 °C; Thermal; DSC; phosphate buffer 10 mM; sodium chloride 40 microM; reversible: no; structure 5AZU; whole UniProt chain shown.
For the variant MLRKLAAVSLLSLLSAPLLAAEASVDIQGNDQMQFNTNAITVDKSAKQFTVNLSHPGNLPKNVMGHNWVLSTAADMQGVVTDGMASGLDKDYLKPDDSRVIAHTKLIGSGEKDSVTFDVSKLKEGEQYMFFCTFPGHSALMKGTLTLK, the “unfolding enthalpy (calorimetric)” value was 16 kcal/mol and the unfolding free energy turned out to be 7.79 kcal/mol.
